Data: US5847077, “Fungal multisubunit protein complex critical for expression of fungal proteins” (University of Massachusetts Medical Center, dated 1998)
One block for each binder: values may come before it.

Tests used:
[1] = target: T1, S. cerevisiae TATA-box Binding Protein (yTBP) (S. cerevisiae, UniProt P13393); assay: Far Western blot of the hydroxylapatite fraction probed with 35S-labelled yTBP
T1 sequence: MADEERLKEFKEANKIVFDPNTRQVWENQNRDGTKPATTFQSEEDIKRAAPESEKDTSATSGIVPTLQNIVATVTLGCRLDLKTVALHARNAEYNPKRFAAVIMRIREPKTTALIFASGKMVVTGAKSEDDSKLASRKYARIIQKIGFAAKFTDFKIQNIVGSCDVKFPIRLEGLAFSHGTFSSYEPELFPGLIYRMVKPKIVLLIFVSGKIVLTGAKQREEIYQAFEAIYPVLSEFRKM
Method: (§1) The hydroxylapatite fraction was separated by SDS-PAGE and transferred to Immobilon-P membranes, and blocked in buffer T (0.2M KOAc) containing 0.01% (v/v) NP-40 and 4% BSA for 3 hr at room temperature followed by 2 hr at […]. ^35S-labeled yTBP and hTBP and its mutant derivatives (Ha, I. et al. Genes & Dev. 7, 1021–1032 (1993)) were synthesized in rabbit reticulocyte lysate and wheat germ extract, respectively, and were diluted in incubation buffer (buffer T (0.2) plus 0.01% (v/v) NP-40 and 0.5% BSA). […] The membrane was incubated with probe at […] for 14–18 min, twice in incubation buffer without BSA for 15 min, and rinsed in buffer T (0.2) lacking glycerol for 20 sec. The membrane was air dried, and exposed directly to film for 8–24 hr.
(§2) To identify this subunit, the yTAF complex was examined for TBP binding using an immobilized protein blotting ("Far Western") assay. The hydroxylapatite fraction was fractionated by SDS-PAGE, the polypeptides transferred to nitrocellulose, and the membrane probed with ^35S-labeled yTBP.

[2] = target: human TATA-box Binding Protein (hTBP) (human, UniProt P20226); assay: Far Western blot of the hydroxylapatite fraction probed with 35S-labelled human TBP
Method: as §1, §2

binding result [1]: no binding
B1: yeast TAF-90 (yTAF90), the 90 kD polypeptide of the yTAF complex (other)
chain: MSQKQSTNQNQNGTHQPQPVKNQRTNNAAGANSGQQPQQQSQGQSQQQGRSNGPFSASDLNRIVLEYLNKKGYHRTEAMLRAESGRTLTPQNKQSPANTKTGKFPEQSSIPPNPGKTAKPISNPTNLSSKRDAEGGIVSSGRLEGLNAPENYIRAYSMLKNWVDSSLEIYKPELSYIMYPIFIYLFLNLVAKNPVYARRFFDRFSPDFKDFHGSEINRLFSVNSIDHIKENEVASAFQSHKYRITMSKTTLNLLLYFLNENESIGGSLIISVINQHLDPNIVESVTAREKLADGIKVLSDSENGNGKQNLEMNSVPVKLGPFPKDEEFVKEIETELKIKDDQEKQLNQQTAGDNYSGANNRTLLQEYKAMNNEKFKDNTGDDDKDKIKDKIAKDEEKKESELKVDGEKKDSNLSSPARDILPLPPKTALDLKLEIQKVKESRDAIKLDNLQLALPSVCMYTFQNTNKDMSCLDFSDDCRIAAAGFQDSYIKIWSLDGSSLNNPNIALNNNDKDEDPTCKTLVGHSGTVYSTSFSPDNKYLLSGSEDKTVRLWSMDTHTALVSYKGHNHPVWDVSFSPLGHYFATASHDQTARLWSCDHIYPLRIFAGHLNDVDCVSFHPNGCYVFTGSSDKTCRMWDVSTGDSVRLFLGHTAPVISIAVCPDGRWLSTGSEDGIINVWDIGTGKRLKQMRGHGKNAIYSLSYSKEGNVLISGGADHTVRVWDLKKATTEPSAEPDEPFIGYLGDVTASINQDIKEYGRRRTVIPTSDLVASFYTKKTPVFKVKFSRSNLALAGGAFRP

binding result [1]: binds | binding result [2]: binds
B2: yeast TAF-145 (yTAF145), the 145 kD polypeptide of the yTAF complex (other)
chain: MVKQQGSGKTNLANEDEAYEAIFGGEFGSLEIGSYIGGDEGANSKDYTEHLPDAVDFEDEDELADDDDDLPEESDANLHPAMMTMGAYDDVNENGAVLGIDSNSLNMQLPEINGDLSQQFILEDDGGTPATSNALFMGMDANEIHLATETGVLDGSGANEIGHSQLSIGGVNGNDMSINGGFIMEPDMSDGKHKKATKLDLINHEKYLLKKYFPDFEKGKILKWNKLIYRRSVPYHWHSEISRVKKPFMPLNLKFKVQQDDKRLFNSRTISYVAPIYQGKNNLLQSNSSASRRGLIHVSIDELFPIKEQQKKRKIIHDEKTISEDLLIATDDWDQEKIINQGTSSTATLADSSMTPNLKFSGGYKLKSLIEDVAEDWQWDEDMIIDAKLKESKHAELNMNDEKLLLMIEKTNNLAQQKQQLDSSNLILPLNETILQQKFNLSNDDKYQILKKTHQTKVRSTISNLNIQHSQPAINLQSPFYKVAVPRYQLRHFHRENFGSHIRPGTKIVFSKLKARKRKRDKGKDVKESFSTSQDLTIGDTAPVYLMEYSEQTPVALSKRGMANKLINYYRKANEQDTLRPKLPVGETHVLGVQDKSPFWNFGFVEPGHIVPTLYNNMIRAPVFKHDISGTDFLLTKSSGFGISNRFYLRNINHLFTVGQTFPVEEIPGPNSRKVTSMKATRLKMIIYRILNHNHSKAISIDPIAKHFPDQDYGQNRQKVKEFMKYQRDGPEKGLWRLKDDEKLLDNEAVKSLITPEQISQVESMSQGLQFQEDNEAYNFDSKLKSLEENLLPWNITKNFINSTQMRAMIQIHGVGDPTGCGEGFSFLKTSMKGGFVKSGSPSSNNNSSNKKGTNTHSYNVAQQQKAYDEEIAKTWYTHTKSLSISNPFEEMTNPDEINQTNKHVKTDRDDKKILKIVRKKRDENGIIQRQTIFIRDPRVIQGYIKIKEQDKEDVNKLLEEDTSKINNLEELEKQKKLLQLELANLEKSQQRRAARQNSKRNGGATRTENSVDNGSDLAGVTDGKAARNKGKNTTRRCATCGQIGHIRTNKSCPMYSSKDNPASPK
